For one protein, Km and kcat results are on record in PMC5294454, “Enhanced delignification of steam-pretreated poplar by a bacterial laccase” (Scientific Reports, 2017).

Substrate in series [1]: COc1cccc(OC)c1O
The experiment in a line: purified protein. Format: biochemical, Amycolatopsis sp. ATCC 39116. As to conditions: O2, 50 mM Tris-HCl, pH 8, 30 °C, 0.1 μM sLac.

Substrate in series [2]: CCn1c(=NN=c2sc3cc(S(=O)(=O)O)ccc3n2CC)sc2cc(S(=O)(=O)O)ccc21
The experiment in a line: purified protein. As to conditions: O2, 50 mM sodium acetate, pH 5, 30 °C, 0.1 μM sLac.

B1: sLac (Amycolatopsis sp. ATCC 39116) (protein)
chain: QGTTRRITMYAEKISDELYGYGLAPGGATVPGPVLEMWEGDTLEIDLVNTTDRVLSLHPHGVDYDVNSDGTLMNGSAVMPGQTRRYTWRSHVGYRRADGSWAEGTAGYWHYHDHAMGTEHGTEGVLKGLYGALVVRRQGDLLPKRQFTVVFNDMMINNRAHHDAPTFEANLGERVEWIAIGHGSNFHTFHLHGHRWLDNRTGMRTSEYDPSPLIDIKDLNPGVSFGFQVIAGEGVGPGMWMYHCHVQNHSDMGMAGMFLVRNADGTMPAGVHEH
notes: residues 6-279, putative N-terminal TAT signal removed, TEV-cleavable N-terminal poly-His tag (cleavage not mentioned), pET15a(+), E. coli Rosetta BL21(DE3)pLysS; forward primer […] encodes MQGTTRRI; reverse primer encodes C-terminal ...VHEH
In general, Km refers to the concentration of substrate that gives half-maximal velocity. Usually kcat stands for the maximal rate divided by the concentration of active sites. Consider B1, for which the figures for the Km in series [1] and in series [2] were 3 ± 0.1 mM and 0.50 ± 0.04 mM, respectively. Further, the kcat in series [1] came to 0.5 ± 0.07 s⁻¹; in series [2] it was 7 ± 0.3 s⁻¹.
